In PMC3979106 (Structure(London, England:1993), 2014):
Changes are numbered by the printed parent chain.

B1: Human FANCL RING domain (residues 289–375) (domain or fragment, UniProt Q9NW38 289-375, looked up)
chain: EIDFPARAILEKSDFTMDCGICYAYQLDGTIPDQVCDNSQCGQPFHQICLYEWLRGLLTSRQSFNIIFGECPYCSKPITLKMSGRKH
notes: FANCL, human, RING domain, residues 289-375, cloned from synthetic codon-optimised human FANCL DNA (GeneArt); also called WT RING; source: E. coli BL21, purified (Ni-NTA, Ulp1 cleavage, Superdex); not shown: 6xHis-Smt3, N-terminal, cleaved

Experiments:
Ube2T (Homo sapiens) = Ube2T (Homo sapiens) (UniProt Q9NPD8); conditions: cited from earlier work
[1] = molecular target: T1, Human Ube2T Arg99Ser/Ser101Arg (human, UniProt Q9NPD8 1-197, Arg99Ser | Ser101Arg); assay: SEC; analytical size-exclusion chromatography, Superdex 75 10/300; RING domain and one E2 incubated 1 hr on ice in 0.1 M NaCl, 0.1 M Tris pH 8, 250 μM TCEP; complex read as a peak shift to the left; conditions: both partners purified
T1 construct: Ube2T, human, double point mutant; also called Arg99Ser/Ser101Arg-Ube2T; source: E. coli, expressed as WT protein, purified; not shown: 6xHis-Smt3, N-terminal, cleaved
T1 sequence (looked up): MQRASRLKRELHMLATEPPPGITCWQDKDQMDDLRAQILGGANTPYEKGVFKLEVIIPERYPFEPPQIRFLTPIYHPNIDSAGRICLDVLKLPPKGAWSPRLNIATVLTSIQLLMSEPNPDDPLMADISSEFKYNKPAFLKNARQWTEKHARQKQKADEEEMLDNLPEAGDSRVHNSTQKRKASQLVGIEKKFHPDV

Human Ube2T Ser5Arg = molecular target: T2, Human Ube2T Ser5Arg (human, UniProt Q9NPD8 1-197, Ser5Arg); assay: as above; conditions: both partners purified
T2 construct: Ube2T, human, point mutant; also called Ser5Arg-Ube2T; source: E. coli, expressed as WT protein, purified; not shown: 6xHis-Smt3, N-terminal, cleaved
T2 sequence (looked up): T1 sequence (looked up) with S5R, S99R, R101S

Molecule	Kd (Ube2T (Homo sapiens))	binding result [1]	binding result (Human Ube2T Ser5Arg)
FANCL (from UniProt Q9NW38)	500 nM		
B1		binds	binds
